Publication PMC12749748, “Chemically-induced degradation of the endoplasmic-reticulum stress sensor IRE1 by a VHL-recruiting chimera” (Nature Communications, 2025)

Biological target: Biotinylated human IRE1.KR protein (human) (UniProt O75460)
Assay: SPR; Biacore S200, 20 °C; biotinylated IRE1.KR captured on a streptavidin chip (100-200 RU); VHL titrated without G6374, 8-point 2-fold series, top 5 µM, single cycle kinetics; 50 mM HEPES pH 7.4, 150 mM NaCl, 0.01% Tween 20, 0.2% PEG3350, 0.25 mM TCEP, 100 µg/ml ovalbumin, 2% DMSO

Biotinylated human IRE1.KR protein (human), sequence (O75460 547-977): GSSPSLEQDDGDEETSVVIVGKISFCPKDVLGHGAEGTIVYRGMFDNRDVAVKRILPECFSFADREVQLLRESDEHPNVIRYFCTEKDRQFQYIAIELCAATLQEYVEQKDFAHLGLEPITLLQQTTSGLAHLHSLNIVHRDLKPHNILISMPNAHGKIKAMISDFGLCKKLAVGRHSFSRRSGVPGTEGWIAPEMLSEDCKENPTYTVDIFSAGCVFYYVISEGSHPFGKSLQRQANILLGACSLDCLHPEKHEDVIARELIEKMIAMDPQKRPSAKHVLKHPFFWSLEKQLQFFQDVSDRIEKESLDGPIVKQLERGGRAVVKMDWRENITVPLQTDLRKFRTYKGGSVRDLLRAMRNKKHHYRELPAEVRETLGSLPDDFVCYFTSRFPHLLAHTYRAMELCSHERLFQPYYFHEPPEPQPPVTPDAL

his-VHL/EloB (VHL in complex with Elongin B) (from UniProt P40337 1-213; Q15370 1-118)
KD without G6374: > 10 µM
